Source: PMC2920065
Blank lines part the entries; values can stand above or below the substance they belong to.

Assays:
[1] = target: GST fusion of the wild type DEP domain of RGS7 (R7-DEP) (bovine) (UniProt O46470); assay: pull-down
[2] = target: GST-DEP F107A/F110A double mutant (bovine) (UniProt O46470); assay: pull-down

fold reduction of binding against wild-type Gβ5 [1]: 5 fold
Substance: Gβ5 I282A/I283A double mutant in complex with the RGS7^249-469 construct (from UniProt O46470 249-469)

increase of the fraction bound against wild-type Gβ5 [1]: 10%
Substance: Gβ5 D259A mutant in complex with the RGS7^249-469 construct (from UniProt O46470 249-469)

fold reduction of binding against wild-type Gβ5 [1]: 5 fold
Substance: Gβ5 F284A mutant in complex with the RGS7^249-469 construct (from UniProt O46470 249-469)

percent bound [1]: > 50%
percent bound [2]: 12%
Substance: complex of wild-type Gβ5 with the RGS7^249-469 construct (from UniProt O46470 249-469)
